Measured values as given in patent US20060121489 (Board of Regents, The University of Texas System, published 2006).

B1: XBY-6 (dsDNA)
DNA 1: CCAGGAGATTCCAC
DNA 2: GTGGAATCTCCTGG
modifications: 6 phosphorodithioate (S2) linkages: 5'-…2TS2CCAC-3' / 3'-GGS2TCCS2TCS2TAAGGS2TG-5'
B2: CK-1 42-mer full phosphorothioate (dsDNA)
DNA 1: CCAGGAGATTCCACCCAGGAGATTCCACCCAGGAGATTCCAC
DNA 2: GTGGAATCTCCTGGGTGGAATCTCCTGGGTGGAATCTCCTGG
modifications: full PS

Tests used:
Conditions in all cases: chain copies: 2 (homodimer, stated)
[1] = molecular target: T1, NF-kB p50 homodimer (UniProt P19838 P19838:1-433); test: EMSA; stated as sub-nM
[2] = molecular target: T2, NF-kB p65 (RelA) homodimer (UniProt Q04206 Q04206:1-551); test: EMSA; p65 homodimer
[3] = molecular target: T1, NF-kB p50 homodimer; test: competition; inhibits p65/p65 and p50/p50 equally; nonspecific stickiness
[4] = molecular target: T2, NF-kB p65 (RelA) homodimer; test: as above

T2 sequence (Q04206 whole entry, one chain of several): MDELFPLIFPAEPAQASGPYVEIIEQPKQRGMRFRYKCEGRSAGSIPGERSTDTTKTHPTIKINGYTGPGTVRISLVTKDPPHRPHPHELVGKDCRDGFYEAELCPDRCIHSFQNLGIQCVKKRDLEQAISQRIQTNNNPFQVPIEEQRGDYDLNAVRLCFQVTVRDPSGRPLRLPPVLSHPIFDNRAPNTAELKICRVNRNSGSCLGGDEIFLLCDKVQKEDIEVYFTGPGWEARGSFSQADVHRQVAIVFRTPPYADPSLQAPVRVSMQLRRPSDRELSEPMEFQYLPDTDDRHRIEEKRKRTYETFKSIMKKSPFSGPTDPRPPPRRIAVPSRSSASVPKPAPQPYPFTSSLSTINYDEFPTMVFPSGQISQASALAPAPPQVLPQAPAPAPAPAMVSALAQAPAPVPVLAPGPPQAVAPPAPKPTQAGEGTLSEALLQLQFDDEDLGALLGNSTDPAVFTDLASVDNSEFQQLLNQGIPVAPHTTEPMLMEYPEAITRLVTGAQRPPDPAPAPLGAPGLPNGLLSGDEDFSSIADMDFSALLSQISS
T1 sequence (P19838 1-433, one chain of several): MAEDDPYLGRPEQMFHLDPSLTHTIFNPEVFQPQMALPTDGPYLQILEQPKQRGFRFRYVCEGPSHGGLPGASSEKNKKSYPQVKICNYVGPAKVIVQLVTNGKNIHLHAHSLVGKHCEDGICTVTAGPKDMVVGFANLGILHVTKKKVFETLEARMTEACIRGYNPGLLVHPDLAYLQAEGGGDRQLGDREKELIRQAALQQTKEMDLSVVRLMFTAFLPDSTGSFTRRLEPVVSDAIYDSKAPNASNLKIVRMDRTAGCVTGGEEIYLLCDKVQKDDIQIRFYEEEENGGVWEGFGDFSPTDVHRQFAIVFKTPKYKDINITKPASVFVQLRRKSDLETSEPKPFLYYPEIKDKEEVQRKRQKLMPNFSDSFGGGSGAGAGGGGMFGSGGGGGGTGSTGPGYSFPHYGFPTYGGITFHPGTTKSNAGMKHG

Binder | Kd [1] [nM] | Kd [2] [nM] | binding result [3] | binding result [4]
B1 | < 1 | 1.4 |  | 
B2 |  |  | binds | binds
